The record followed here is IntAct's records for PubMed 15214843.

Sequences and labels used below:
B1: Septin-5 (Homo sapiens), Q99719 (parent)
chain: MSTGLRYKSKLATPEDKQDIDKQYVGFATLPNQVHRKSVKKGFDFTLMVAGESGLGKSTLVHSLFLTDLYKDRKLLSAEERISQTVEILKHTVDIEEKGVKLKLTIVDTPGFGDAVNNTECWKPITDYVDQQFEQYFRDESGLNRKNIQDNRVHCCLYFISPFGHGLRPVDVGFMKALHEKVNIVPLIAKADCLVPSEIRKLKERIREEIDKFGIHVYQFPECDSDEDEDFKQQDRELKESAPFAVIGSNTVVEAKGQRVRGRLYPWGIVEVENQAHCDFVKLRNMLIRTHMHDLKDVTCDVHYENYRAHCIQQMTSKLTQDSRMESPIPILPLPTPDAETEKLIRMKDEELRRMQEMLQRMKQQMQDQ
partner: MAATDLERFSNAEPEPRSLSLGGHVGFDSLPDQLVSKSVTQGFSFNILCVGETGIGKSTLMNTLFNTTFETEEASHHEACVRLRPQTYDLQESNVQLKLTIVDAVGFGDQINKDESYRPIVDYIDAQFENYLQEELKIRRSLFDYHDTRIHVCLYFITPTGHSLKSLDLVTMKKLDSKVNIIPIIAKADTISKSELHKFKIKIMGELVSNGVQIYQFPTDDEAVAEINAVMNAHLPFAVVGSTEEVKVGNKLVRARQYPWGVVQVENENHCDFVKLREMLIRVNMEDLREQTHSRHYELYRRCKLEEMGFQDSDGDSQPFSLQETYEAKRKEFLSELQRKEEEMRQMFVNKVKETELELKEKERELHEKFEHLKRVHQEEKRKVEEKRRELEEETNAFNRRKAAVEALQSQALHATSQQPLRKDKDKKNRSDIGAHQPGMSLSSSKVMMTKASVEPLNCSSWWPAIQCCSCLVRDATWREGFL

Variants of B1 are the subject of this test. Particulars: with sept8_human SEPTIN8, Q92599.
As for S38A, the “effect of a mutation on the interaction” value is reported as “with no effect”.

With K40A;K41A, the “effect of a mutation on the interaction” value was “with no effect”.

For the variant S58N, the “effect of a mutation on the interaction” value is reported as “disrupting interaction strength”.
